# Source: the DeepSol protein solubility set
# Test: soluble on expression in E. coli; label from the status in PepcDB or PDB records
row,Sequence,soluble on expression in E. coli
1,MGSDKIHHHHHHMGHSLLFAVDVRPPHDVGVDGPRTASMCQNEVVADLKQRRPSVEQIIRIGIDTSKHVFQLHGVNAAEEPVLRKKLRRKEVVALFEKLSPTVVAIEACGGSHHWARLLQSFGHEVKLIPPQYVKPYVKRGKNDTADAEALCEAMSRPTMRFVPVKTAKQQAALMLVGLRDRLIRNRTQLANAIRGYAAEYGLIAARGMCKIEPLLERIAADKMLPDLARELFALHAKEYAQLQTQLKDVDAKLMAWHRAEACSQRLAQIPGVGPIGASLLVMKTPAPETFRSARHFAAWLGLTPKDHSTAGRVRLGVITRAGDEALRSVLVAGATAVIRHVRRGRGAVSPWLVDLLKRKPPKLAAVALANKIARIAWKLMVSGEIYGAKPMPPASARAA,not soluble
2,MSLITHISPLGSMDMLSQLEVDMLKRTASSDLYQLFRNCSLAVLNSGSLTDNSKELLSRFENFDINVLRRERGVKLELINPPEEAFVDGRIIRALQANLFAVLRDILFVYGQIHNTVRFPNLNLDNSVHITNLVFSILRNARALHVGEAPNMVVCWGGHSINENEYLYARRVGNQLGLRELNICTGCGPGAMEAPMKGAAVGHAQQRYKDSRFIGMTEPSIIAAEPPNPLVNELIIMPDIEKRLEAFVRIAHGIIIFPGGVGTAEELLYLLGILMNPANKDQVLPLILTGPKESADYFRVLDEFVVHTLGENARRHYRIIIDDAAEVARQMKKSMPLVKENRRDTGDAYSFNWSMRIAPDLQMPFEPSHENMANLKLYPDQPVEVLAADLRRAFSGIVAGNVKEVGIRAIEEFGPYKINGDKEIMRRMDDLLQGFVAQHRMKLPGSAYIPCYEICTEGHHHHHH,soluble
3,MVKKVKGRRYEGSIEQRSKNSWRMRVTVGYDYKGTPIRADRTTRTKNERERERELRNFITELEQNGYTAPARMTFKAFVENEYMPKHAQNNLEVKTWTEYYKSIVARAYPAFGGVQMDKITTLHIVNLVAKLQKPGARLDVKPTDSDEKKNKPLSPRSIRNIYFAINSVFETAVEWKVIPINPAEGVRLPKTTKRPPTIYTPAEIELLNAALVKEPLRLQVMIYIALISGCREAELAALEVKHVNLIEDELTFEQTLVAKAGEGLLLKESTKNDVAGIVSIPAWLTNLIETYISNEVLDLKTEGKWANHKFLFADMEGKPIRPDSIYQRWKRFLERHNLPVIRFHDLRHTSATLLLNKGRDIKIIQERLRHKSSVTTSNIYAHVLKDTHKDAASDFENPF,not soluble
4,RTFRHYDAYRSQSGTTGTDAARFILSQSGINDVGVQKISGDLTDNYNGQTKILSLSEATADSTSVAAIGVAAHECGHAVQDHVNYWPMRLRTALVP,not soluble
5,MIRSFADRDTELVWLREGAKRVDPRIHKVANRKLHLLDAATTLDALRVTPGNRLETLEGDRVGQYSIRVNDQWRICFRWNDSGPENVEIVDYH,not soluble
6,MGSDKIHHHHHHMSALVDPVTDTDLDAYVDDQLDVTRRIEVEAFLSTRPEAAARVMSDLRTRDELRVALAGSKGMARPATADAARRLERGLARGRIFGVLQRSAAVAAFVAAGWLANGIIGPMSVTKVVASPQPPAYVDEAVRAHRTTLVRETMPSQPEAPNYSAGEIRAATAIVMPSLPKDWKVRDVQIYPSRFGPSVEMAVDTKDMGLVSLFAIRPGTFDVVKPTVAPSGDISSAYFQIGEVAYAVVAKSGVRDLDRAAETLARTLY,not soluble
7,MKMDTGALTFQQKIYWLVKQIPLGRVATYGQIAALCGWPRHGRYVGYALYRVAPNSDIPWHRVVNAQGKISYAPQRRGTDELQRWRLAAEGIIFTAGLEHHHHHH,not soluble
8,MTGFDFSDKTVWVTGAGKGIGYATALAFVDAGARVIGFDREFTQENYPFATEVMDVADAAQVAQVCQRVLQKTTRLDVLVNAAGILRMGATDALSVDDWQQTFAVNVGGAFNLFSQTMAQFRRQQGGAIVTVASDAAHTPRIGMSAYGASKAALKSLALTVGLELAGCGVRCNVVSPGSTDTDMQRTLWVSEDAEQQRIRGFGEQFKLGIPLGKIARPQEIANTILFLASDLASHITLQDIVVDGGSTLGA,not soluble
9,MGHHHHHHSHMSNLTPESSPELAKKSWFGNFISLEKEEQIFVVIKDKPLSSIKADIVHAFLSIPSLSHSVISQTSFRAEYKATGGPAVFQKPVKFQVDITYTEGGEAQKENGIYSVTFTLLSGPSRRFKRVVETIQAQLLSTHDPLRPSTCQTPLTVWK,not soluble
10,MVEEMNNEVTEMKSFSVGDVVSGKVTKVEDKQAFVDVGFKVDGIIPISELSSLHVEKVSDVLSEGDELELKVLKVEDDELILSKRAVQAEKAWETLQAALDSGEVIEAEVADVVKGGLVVDLGVRGFIPASLVERHYVEDFSDYKGRTLRLKVVELDKEANKLILSQRAVLDEEVEAKKKEVLASLQPGDVVEGTVQRLTDFGAFVDVGGVDGLVHISQLAHHRVETPAEVVKEGDAVKVKVLSVDPDSERVSLSIKETLPGPWEQVEGTIQPGDVIEGTVKRLVSFGAFVEVAPGVEGLVHISQIANRHIGTPGEVLSEGERVQAKVLDVNISEKRISLSIRELLDDAGSNQSDREVYESTNEESSGFSLGDMIGDELKKYKLEHHHHHH,soluble
11,MGSDKIHHHHHHMKSRLKKSHRLIRLISNIKSEPYLTVEQLVKIHRISRAQFYKDKAALAELGFEFSWDRRRRRFVISRVAYCPVENLTLSERWALLMAARQLSASGDYSLSFEVLNAARKLAAGLSDPIRETAVSLFNDLVLREGYGCRKEVMNKISMAIFEKRRIILTYKKPLDSQPEREELDPYHLFFQDRSLYVEGYACLRRDVRMFRLNRIRDIAFTPIRFSIPDDYDFGKRYRNAFSVFGGTTTQRVVVRFTAHIRPYIEETLWHHSQVVTIENGGFIRFEVQVAEPREVLWWAFRWGAGAEILEPAWLREKAKCEVEKMAGMYGRGSGSG,not soluble
12,MGSDKIHHHHHHMNIQEAFNAAAVDYDSLRRILIPCFDDFYKTAVEIIPIERTAPIKVLDLGAGTGLYSGMVQSVFPNAELTLLDLAPEMLEKAKLRFSKMGKSPKILIGDYVETNLDDSYDLIISALSIHHLSDFDKELLYQRIYNFLNPGGIFVNADQVLGKTPDLEELYRQHWLDSVRAKGISEEDLKAAQKRMEYDRMATLEIQLHWLEAAGFQNVDCWYKNFSFAVFGGYRPTI,not soluble
13,MSLEENMEGALFLENESFCEEIPDNPNIEKEKPLEFISSGNLEIDRKLEGGIPVGSLCLLEGAKDSGKSIFMQQIMWGALNQDKKVLALTTEKTSRNLLNNMESLKQDISDYFIIGRSKIFEINASDVEENPEISENLLEIMLECIKECEEELILIDSLTILAVNASENTLLNFFRECIKLCDKKKTILISVHGYAFSQEVLYRLRSVCNSCLELRIEQVGDKLIKTMEIQKLRGAKKTTGNMLSFDVNSECGLKIIPVSKVKAEGHHHHHH,soluble
14,MTSPNNDILAAQLSQLGTLRAALAQAVVGQDAVVEQLLIGLLAGGHCLLEGAPGLGKTLLVRSLGQALDLQFRRVQFTPDLMPSDILGTELLEEDHGTGHRHFRFQQGPIFTNLLLADELNRTPPKTQAALLEAMSERTVSYAGTTYALPAPFFVLATQNPIEQAGTYPLPEAQLDRFLLHVRVDYPSEQEERDILTQTTGSASAQVPKVMDAASVQALQQHVRQVHVGAELLTWINRLVRASRPGPQASDEVRQWIKWGAGPRAGQSLVLASKARALLHGRFAATREDVVALAAPVMRHRLLLSFAAEAEQRTADDVVAALLRAVPFPALEHHHHHH,soluble
15,MRIGLFTDTYFPQVSGVATSIRTLKEELEKEGHEVYIFTTTDRDVKRFEDPTIIRLPSVPFVSFTDRRVVYRGLISSYKIAKHYNLDIIHTQTEFSLGLLGKMIGKALRIPVVHTYHTQYEDYVSYIANGKIIRPSMVKPLLRGYLKDLDGVICPSRIVLNLLEGYEVTIPKRVIPTGIPLEKYIRDDITAEEVTNLKAELGIAGDETMLLSLSRISYEKNIQAIINQMPAILAENAKIKLIIVGNGPYLQDLKHLAMQLEVDKHVTFTGMVPHDKVALYYKACDFFISASTSETQGLTYIESLASGTPIIAHGNPYLDDVVTDKMFGTLYYAETDLTDAIIDAILKTPVMDKRLLAKKRYEISAQHFGKSIYTFYLDTLIARNSKEAQKLSLYLNHSGKSSSLKLVQGAIHLPKRAAKVTAITSVKVVKAPIKLVHAIKDFLD,not soluble
16,MSLTRGEARRPPQEFDRVLSSMCTTPHPAAREAAQAFLATNPGDPETYPAVAERERDAVALLGEIVGLSSPHGYIAAGGTEANLQAVRAARNRADADAVNVVAPASAHFSFQKAADVLGVELRLAPTDGDHRADVAAVADLVDGDTAVVVGVAGTTEYGRVDPIPALADIAAGVDANLHVDAAWGGFVLPFTDHDWSFADAPVNTMAIDPHKMGQAPVPAGGFLARDPETLDALAIETPYLESDTQPTLGGTRSGAGVAGALASLRALWPDGYREQYERTQGNAEYLAAELAARGYDVVDPELPLVAADMPDAEFQALREEGWRISRTASDALRVVCMPHVTREMLAAFLDDVDALAEGHHHHHH,not soluble
17,KKEQEQMLKEERKRELEEKVKAVEDRAKRRKLREERAWLLAQGKELPPELSHLDPNSPMREEKKTKDLFELDDDFTAMYKVLDVVKAHKDSWPFLEPVDESYAPNYYQIIKAPMDISSMEKKLNGGLYCTKEEFVNDMKTMFRNCRKYNGESSEYTKMSDNLERCFHRAMMKHFPGEDGDTDEEFWIREDEKREKRRSRAGRSGGSHVWTRSRDPEGSSRKQQPMENGGKSLPPTRRAPSSGDDQSSSSTQPPREVGTSNGRGFSHPLHCGGTPSQAPFLNQMRPAVPGTFGPLRGSDPATLYGSSGVLEPHPGEPVQQRQPFTMQPPVGINSLRGPRLGTPEEKQMCGGLTHLSNMGPHPGSLQLGQISGPSQDGSMYAPAQFQPGFIPPRHGGAPARPPDFPESSEIPPSHMYRSYKYLNRVHSAVWNGNHGATNQGPLGPDEKPHLGPGPSHQPRTLGHVMDSRVMRPPVPPNQWTEQSGFLPHGVPSSGYMRPPCKSAGHRLQPPPVPAPSSLFGAPAQALRGVQGGDSMMDSPEMIAMQQLSSRVCPPGVPYHPHQPAHPRLPGPFPQVAHPMSVTVSAPKPALGNPGRAPENSEAQEPENDQAEPLPGLEEKPPGVGTSEGVYLTQLPHPTPPLQTDCTRQSSPQERETVGPELKSSSSESADNCKAMKGKNPWPSDSSYPGPAAQGCVRDLSTVADRGALSENGVIGEASPCGSEGKGLGSSGSEKLLCPRGRTLQETMPCTGQNAATPPSTDPGLTGGTVSQFPPLYMPGLEYPNSAAHYHISPGLQGVGPVMGGKSPASHPQHFPPRGFQSNHPHSGGFPRYRPPQGMRYSYHPPPQPSYHHYQRTPYYACPQSFSDWQRPLHPQGSPSGPPASQPPPPRSLFSDKNAMASLQGCETLNAALTSPTRMDAVAAKVPNDGQNPGPEEEKLDESMERPESPKEFLDLDNHNAATKRQSSLSASEYLYGTPPPLSSGMGFGSSAFPPHSVMLQTGPPYTPQRPASHFQPRAYSSPVAALPPHHPGATQPNGLSQEGPIYRCQEEGLGHFQAVMMEQIGTRSGIRGPFQEMYRPSGMQMHPVQSQASFPKTPTAATSQEEVPPHKPPTLPLDQS,soluble
18,MSLAEYVYTMSRVSKIVPPKRQILKDISLSFFPGAKIGVLGLNGAGKSTLLRIMAGIDKDIDGEARPQPGLKVGYLPQEPKLDESKTVREVVEEAVADVAYALKRLDEVYAAYAEPDADFDALAKEQGELEALIQAKNGHNLDNALERAADALRLPEWDAQVKYLSGGERRRVAICRLLLENPDMLLLDEPTNHLDAESVAWLERFLVDYAGTVVAITHDRYFLDNAAGWILELDRGEGIPWQGNYTSWLEQKDARLKQEASEGHHHHHH,not soluble
